Results from the supplement of paper PMC7877785.
± gives the uncertainty stated by the source.

Test: self-splicing fitness, log relative to wild type (ln ratio); higher = more splicing; Tetrahymena group I intron in knt gene, E. coli kanamycin selection, DiMSum; sequences stand for … in CUCUCU…GGAGGGAAAAGUUAUCAGGCAUGCACCUGGUAGCUAGUCUUUAAACCAAUAGAUUGCAUCGGUUUAAAAGGCAAGACCGUCAAAUUGCGGGAAAGGGGUCAACAGCCGUUCAGUACCAAGUCUCAGGGGAAACUUUGAGAUGGCCUUGCAAAGGGUAUGGUAAUAAGCUGACGGACAUGGUCCUAACCACGCAGCCAAGUCCUAAGUCAACAGAUCUUCUGUUGAUAUGGAUGCAGUUCACAGACUAAAUGUCGGUCGGGGAAGAUGUAUUCUUCUCAUAAGAUAUAGUCGGACCUCUCCUUAAUGGGAGCUAGCGGAUGAAGUGAUGCAACACUGGAGCCGCUGGGAACUAAUUUGUAUGCGAAAGUAUAUUGAUUAGUUUUGGAGUACUCGUGGUCG
Outline: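 Colonies from six replicate transformations of E. coli BL21(DE3) were pooled and amplicon-sequenced on an Illumina HiSeq 2500. The library placed an intron with all eight P1ex-region nucleotides randomised inside the knt kanamycin-resistance gene on pET-22b(+), and cells grew overnight at 37°C or 30°C on LB agar with or without 25 μg/mL kanamycin (plus 100 μg/mL carbenicillin, 50 μM IPTG, 0.2% rhamnose). Fitness is the DiMSum error-weighted combination of wild-type-normalised replicate fold changes, kanamycin versus none.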

Sequence	self-splicing fitness (ln) (30 °C)	self-splicing fitness (ln) (37 °C)
CCUCAGCAAUAUUACGGGCC	-4.31 ± 0.3	-2.77 ± 0.36
CCUCAGCAAUAUUACGGGCU	-2.67 ± 0.18	-2.57 ± 0.25
CCUCAGCAAUAUUACGGGUG	-2.04 ± 0.06	-0.955 ± 0.07
CCUCAGCAAUAUUACGUGGU	-3.93 ± 0.11	-2.5 ± 0.13
CCUCAGCAAUAUUACGUGUU	-4.12 ± 0.2	-3.41 ± 0.25
CCUCAGCAAUAUUACGUUAU	-3.74 ± 0.17	-2.49 ± 0.17
CCUCAGCAAUAUUACGUUCG	-2.69 ± 0.077	-0.795 ± 0.075
CCUGAGCAAUAUUACGAAUU	-2.96 ± 0.2	-2.15 ± 0.31
CCUGAGCAAUAUUACGAUGC	-4.16 ± 0.28	-2.75 ± 0.21
CCUGAGCAAUAUUACGCACC	–	-1.74 ± 0.4
CCUGAGCAAUAUUACGCCCU	–	-1.73 ± 0.33
CCUGAGCAAUAUUACGGAAC	-2.63 ± 0.33	-1.66 ± 0.31
CCUGAGCAAUAUUACGGACA	-3.69 ± 0.28	-1.64 ± 0.18
CCUGAGCAAUAUUACGGAGU	-3.26 ± 0.31	-1.92 ± 0.18
CCUGAGCAAUAUUACGGCAC	–	-2.23 ± 0.26
CCUGAGCAAUAUUACGGCCG	–	-2.21 ± 0.4
CCUGAGCAAUAUUACGGCGG	-2.37 ± 0.13	-1.92 ± 0.17
CCUGAGCAAUAUUACGGGAA	-2.46 ± 0.27	-0.571 ± 0.29
CCUGAGCAAUAUUACGGGAU	-3.46 ± 0.24	-1.63 ± 0.2
CCUGAGCAAUAUUACGGGCU	-2.51 ± 0.16	-2.3 ± 0.32
CCUGAGCAAUAUUACGGUCU	–	-3.78 ± 0.42
CCUGAGCAAUAUUACGGUUG	-3.44 ± 0.13	-1.3 ± 0.1
CCUGAGCAAUAUUACGUAGU	-3.18 ± 0.14	-1.21 ± 0.14
CCUGAGCAAUAUUACGUCUA	-2.86 ± 0.31	-1.69 ± 0.3
CCUGAGCAAUAUUACGUUGA	-3.7 ± 0.26	-3.27 ± 0.25

Sequence	self-splicing fitness (ln) (30 °C)	self-splicing fitness (ln) (37 °C)
CCUUAGCAAUAUUACGAAUA	-2.52 ± 0.27	-2.21 ± 0.5
CCUUAGCAAUAUUACGAAUU	–	-2.29 ± 0.49
CCUUAGCAAUAUUACGACAA	-3.31 ± 0.2	-3.02 ± 0.35
CCUUAGCAAUAUUACGACAC	-2 ± 0.14	-2.1 ± 0.25
CCUUAGCAAUAUUACGACAG	-1.81 ± 0.11	-0.864 ± 0.14
CCUUAGCAAUAUUACGACUA	–	-2.23 ± 0.5
CCUUAGCAAUAUUACGACUG	-2.26 ± 0.12	-0.308 ± 0.096
CCUUAGCAAUAUUACGAUGA	-3 ± 0.43	-1.71 ± 0.28
CCUUAGCAAUAUUACGCCCG	-1 ± 0.13	-1.49 ± 0.21
CCUUAGCAAUAUUACGCGAA	-4.02 ± 0.26	-2.62 ± 0.29
CCUUAGCAAUAUUACGCGAG	-4.2 ± 0.31	-3.27 ± 0.28
CCUUAGCAAUAUUACGCGCA	-2.45 ± 0.4	-1.89 ± 0.34
CCUUAGCAAUAUUACGCGCU	-3.13 ± 0.32	-3.41 ± 0.42
CCUUAGCAAUAUUACGCGGG	-3.22 ± 0.16	-2.21 ± 0.2
CCUUAGCAAUAUUACGGAAG	-2.61 ± 0.14	-1.13 ± 0.14
CCUUAGCAAUAUUACGGCUU	-3.99 ± 0.37	-1.99 ± 0.2
CCUUAGCAAUAUUACGGGGC	-3.39 ± 0.27	-3.06 ± 0.32
CCUUAGCAAUAUUACGGUGG	-2.71 ± 0.15	-1.36 ± 0.15
CCUUAGCAAUAUUACGUAAG	-1.28 ± 0.097	-0.938 ± 0.12
CGAAAGCAAUAUUACGAAAC	-2.85 ± 0.19	-2.14 ± 0.21
CGAAAGCAAUAUUACGAAAU	-2.32 ± 0.19	-2.96 ± 0.24
CGAAAGCAAUAUUACGAACG	-1.08 ± 0.13	-0.291 ± 0.14
CGAAAGCAAUAUUACGACAG	-0.552 ± 0.068	-0.0312 ± 0.081
CGAAAGCAAUAUUACGCACC	-1.17 ± 0.14	-0.396 ± 0.19
CGAAAGCAAUAUUACGCAUG	-1.56 ± 0.1	-0.368 ± 0.11

Sequence	self-splicing fitness (ln) (30 °C)	self-splicing fitness (ln) (37 °C)
CGAAAGCAAUAUUACGCGAG	-2.88 ± 0.25	-2.26 ± 0.22
CGAAAGCAAUAUUACGGAUU	-3.5 ± 0.2	-2.63 ± 0.19
CGAAAGCAAUAUUACGGCAU	-2.26 ± 0.12	-0.29 ± 0.089
CGAAAGCAAUAUUACGGCCC	-1.42 ± 0.19	-0.196 ± 0.35
CGAAAGCAAUAUUACGGGAG	-3.09 ± 0.12	-2.56 ± 0.13
CGAAAGCAAUAUUACGGGCA	-1.85 ± 0.11	-0.138 ± 0.1
CGAAAGCAAUAUUACGGGGU	-3.65 ± 0.21	-1.94 ± 0.18
CGAAAGCAAUAUUACGGUGC	-3.09 ± 0.17	-2.65 ± 0.21
CGAAAGCAAUAUUACGGUGU	-2.55 ± 0.088	-1.66 ± 0.11
CGAAAGCAAUAUUACGUCUG	-0.362 ± 0.066	0.364 ± 0.078
CGAAAGCAAUAUUACGUGAA	-2.52 ± 0.092	-1.17 ± 0.12
CGAAAGCAAUAUUACGUGUU	-4.1 ± 0.18	-2.54 ± 0.17
CGAAAGCAAUAUUACGUUAA	-2.27 ± 0.15	-1.42 ± 0.12
CGAAAGCAAUAUUACGUUGG	-1.66 ± 0.08	-0.961 ± 0.097
CGACAGCAAUAUUACGAAGA	-2.29 ± 0.17	-2.09 ± 0.16
CGACAGCAAUAUUACGAAGU	-4.32 ± 0.37	-3.18 ± 0.43
CGACAGCAAUAUUACGACAC	-1.96 ± 0.13	-1.97 ± 0.22
CGACAGCAAUAUUACGACCG	-0.981 ± 0.1	0.0442 ± 0.18
CGACAGCAAUAUUACGACGU	-1.07 ± 0.07	0.0477 ± 0.086
CGACAGCAAUAUUACGAGCG	-2.02 ± 0.13	-0.549 ± 0.099
CGACAGCAAUAUUACGAUUU	-2.34 ± 0.075	-1.26 ± 0.087
CGACAGCAAUAUUACGCACG	-3.74 ± 0.4	-2.31 ± 0.35
CGACAGCAAUAUUACGGCAA	-2.12 ± 0.21	-1.58 ± 0.17
CGACAGCAAUAUUACGGUGG	-1.73 ± 0.097	-0.756 ± 0.1
CGACAGCAAUAUUACGUAGG	-0.919 ± 0.062	-0.934 ± 0.076

Sequence	self-splicing fitness (ln) (30 °C)	self-splicing fitness (ln) (37 °C)
CGACAGCAAUAUUACGUCGC	-3.71 ± 0.25	-3.74 ± 0.33
CGACAGCAAUAUUACGUCGU	-4.07 ± 0.19	-2.29 ± 0.11
CGACAGCAAUAUUACGUCUG	-1.54 ± 0.083	-0.38 ± 0.092
CGACAGCAAUAUUACGUGGU	-3.79 ± 0.18	-3.34 ± 0.17
CGACAGCAAUAUUACGUUAA	-3.04 ± 0.22	-2.19 ± 0.18
CGACAGCAAUAUUACGUUGU	-3.46 ± 0.1	-3.25 ± 0.15
CGAGAGCAAUAUUACGAAGG	-3.4 ± 0.22	-2.69 ± 0.32
CGAGAGCAAUAUUACGACGC	-1.91 ± 0.42	–
CGAGAGCAAUAUUACGACGG	-0.704 ± 0.16	-0.616 ± 0.18
CGAGAGCAAUAUUACGACGU	-2.81 ± 0.22	-3.04 ± 0.43
CGAGAGCAAUAUUACGAUGA	-2.11 ± 0.28	-1.27 ± 0.25
CGAGAGCAAUAUUACGAUGG	-3.15 ± 0.2	-0.694 ± 0.16
CGAGAGCAAUAUUACGCACG	-3.55 ± 0.29	-1.76 ± 0.3
CGAGAGCAAUAUUACGCAUA	-2.12 ± 0.44	-1.44 ± 0.49
CGAGAGCAAUAUUACGCGGA	-2.34 ± 0.37	-1.37 ± 0.19
CGAGAGCAAUAUUACGCGGU	-3.23 ± 0.23	-2.4 ± 0.24
CGAGAGCAAUAUUACGCUAG	–	-2.77 ± 0.4
CGAGAGCAAUAUUACGCUGC	-2.93 ± 0.36	-2.48 ± 0.37
CGAGAGCAAUAUUACGGAAC	-1.56 ± 0.44	–
CGAGAGCAAUAUUACGGAGG	-2.7 ± 0.49	–
CGAGAGCAAUAUUACGGCGG	-1.63 ± 0.14	-0.665 ± 0.26
CGAGAGCAAUAUUACGGCGU	-2.46 ± 0.28	-1.2 ± 0.19
CGAGAGCAAUAUUACGGCUC	-1.09 ± 0.21	–
CGAGAGCAAUAUUACGGGUG	-2.95 ± 0.15	-2.01 ± 0.16
